This is an account of results in paper PMC5436742, “Structural models of the different trimers present in the core of phycobilisomes from Gracilaria chilensis based on crystal structures and sequences” (PLoS ONE, 2017).

Broadly, the stoichiometry N is the number of molecules, sites or subunits per partner or assembly.

The data set concerns the molecule itself. Put plainly: SEC; 50 μL of 1 mg/mL purified APC on Superdex200 HR/30, 5 mM phosphate buffer pH7, 0.5 ml/min, calibrated with BioRad standards, elution followed at 651 and 280 nm. A general note: SEC sorts molecules by how far they enter the pores of the column.

B1: Allophycocyanin αβ heterodimer from Gracilaria chilensis (complex)
chain 1: MSIITKSIVNADAEARYLSPGELDRIKSFVLSGQRRLRIAQILTDNRELIVKQGGQQLFQKRPDVVSPGGNAYGEEMTATCLRDLDYYLRLVTYGIVAGDVTPIEEIGLVGVKEMYNSLGTPISGVAEGVRSMKNVACSLLAGEDSAEAGFYFDYTLGAMQ
chain 2: MQDAITSVINAADVQGRYLDDNSLDKLRGYFQTGELRVRASATIAANAATIIKDSVAKALLYSDITRPGGNMYTTRRYAACIRDLDYYLRYATYGMLAGDPSILDERVLNGLKETYNSLGVPIGATIQAVQAMKEVTSSLVGPDAGKEMGVYFDYICSGLS
modifications: phycocyanobilin bound to cysteine 81 | phycocyanobilin bound to cysteine 81; methyl-Asn71 (Asm71)
notes: Allophycocyanin α subunit (gene apcA), Gracilaria chilensis; 161 residues; as the chain of m1; Allophycocyanin β subunit (gene apcB), Gracilaria chilensis; as the chain of m2; The αβ heterodimer is the unit that associates with itself into the trimer (αβ)3; also called APC; heterodimer αβ; source: purified from Gracilaria chilensis (method in S4 File)
On to B1, for which the “stoichiometry N” value stood at 3.
